Data reported in patent US20260125454A1 (SHANGHAI JUNSHI BIOSCIENCES, published 2026).

T1: Biotin-huCGRPaSA (human, not fully specified; biotin (position not given))
T1 construct: exact construct ('aSA') not explained; also called Biotin CGRPaSA; full-length (1-37) CGRP
T1 peptide: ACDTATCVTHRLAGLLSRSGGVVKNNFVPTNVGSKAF


Biological target: T1, Biotin-huCGRPaSA
Test: ELISA, supernatant; relative to chimeric C245
Procedure, shortened: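 Plates coated with biotin-CGRPaSA at 1.0 μg/mL (90 min, 37°C) and blocked with 2% BSA. Humanized antibodies and chimeric C245 reference, 2.5-fold serial dilutions from 1000 ng/mL, bound 60 min at 37°C. Detection by HRP anti-human IgG (Fc), TMB 15 min, read at 450/620 nm.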

Binder	Relative binding activity, % [%]
hu199 (antibody, V domains shown, 3H10 HC-1/1A2 LC2-4) VH: QVQLVQSGAEVKKPGASVKVSCKASGYTFTDYNMHWVRQAPGQGLEWMGYIYPYNGHTVYNQKFRNRVTMTVDTSSSTAYMELRSLRSDDTAVYYCAKEGLGGYWGQGTLVTVSS VL: DIQLTQSPSFLSASVGDRVTITCKASQNIDYDGYAYLNWYQQKPGKAPKVLIYSVFNLESGVPSRFSGSGSGTEFTLTISSLQPEDFATYYCQQSNEFPYTFGQGTKLEIK	41
hu218 (antibody, V domains shown, 3H10 HC-2/2B8 LC2-2) VH: QVQLVQSGAEVKKPGASVKVSCKASGYTFTDYNMHWVRQAPGQGLEWMGYIYPYNGHTVYNQKFRNRVTLTVDTSSSTAYMELRSLRSDDTAVYYCAREGLGGYWGQGTLVTVSS VL: DVQLTQSPSFLSASVGDRVTITCQASQNIDGNTYMNWYQQKPGKAPKVLIYSIFNLESGVPSRFSGSGSGTEFTLTISSLQPEDFATYYCQQSNDYPYTFGQGTKLEIK	24
hu21 (antibody, V domains shown, 1B2 HC-2/1F5 LC1-4) VH: QVQLVQSGAEVKKPGASVKVSCKASGYTFTDYNMHWVRQAPGQRLEWMGYIFPYNGVAVYNRKFRSRVTLTVDTSSSTAYMELSSLRSEDTAVYYCAREGLGGYWGQGTLVTVSS VL: DIVLTQSPDSLAVSLGERATINCKASQNIDFDGYAYMNWYQHKPGQPPKVLIYSVFNLESGVPDRFSGSGSGTDFTLTISSLQAEDVAVYYCQQSHEVPYTFGQGTKLEIK	33
hu25 (antibody, V domains shown, 1B2 HC-2/3H10 LC2-1) VH: QVQLVQSGAEVKKPGASVKVSCKASGYTFTDYNMHWVRQAPGQRLEWMGYIFPYNGVAVYNRKFRSRVTLTVDTSSSTAYMELSSLRSEDTAVYYCAREGLGGYWGQGTLVTVSS VL: DIVLTQSPDSLAVSLGERATINCKASQNIDYGGYSYMNWYQQKPGQPPKVLIYSVFNLESGVPDRFSGSGSGTDFTLTISSLQAEDVAVYYCQQSNEAPYTFGQGTKLEIK	66
hu127 (antibody, V domains shown, 2B8 HC1-2/2B8 LC2-2) VH: QVQLVQSGAEVKKPGASVKVSCKASGYTFTDYNMHWVRQAPGQGLEWMGNIYPYNGGTVYNQKFNNRVTLTVDTSSSTAYMELRSLRSDDTAVYYCAREGLGGYWGQGTLVTVSS VL: DVQLTQSPSFLSASVGDRVTITCQASQNIDGNTYMNWYQQKPGKAPKVLIYSIFNLESGVPSRFSGSGSGTEFTLTISSLQPEDFATYYCQQSNDYPYTFGQGTKLEIK	24
hu205 (antibody, V domains shown, 3H10 HC-1/2B8 LC2-2) VH: QVQLVQSGAEVKKPGASVKVSCKASGYTFTDYNMHWVRQAPGQGLEWMGYIYPYNGHTVYNQKFRNRVTMTVDTSSSTAYMELRSLRSDDTAVYYCAKEGLGGYWGQGTLVTVSS VL: DVQLTQSPSFLSASVGDRVTITCQASQNIDGNTYMNWYQQKPGKAPKVLIYSIFNLESGVPSRFSGSGSGTEFTLTISSLQPEDFATYYCQQSNDYPYTFGQGTKLEIK	26
hu153 (antibody, V domains shown, 3E5 HC-1/2B8 LC2-2) VH: QVQLVQSGAEVKKPGASVKVSCKTSGYTFTDYNMHWVRQAPGQRLEWMGYISPYNGGTAYNQKFKFRVTLTVDTSSSTAYMELSSLRSEDTAVYYCAREGLGGYWGQGTLVTVSS VL: DVQLTQSPSFLSASVGDRVTITCQASQNIDGNTYMNWYQQKPGKAPKVLIYSIFNLESGVPSRFSGSGSGTEFTLTISSLQPEDFATYYCQQSNDYPYTFGQGTKLEIK	56
hu23 (antibody, V domains shown, 1B2 HC-2/2B8 LC2-2) VH: QVQLVQSGAEVKKPGASVKVSCKASGYTFTDYNMHWVRQAPGQRLEWMGYIFPYNGVAVYNRKFRSRVTLTVDTSSSTAYMELSSLRSEDTAVYYCAREGLGGYWGQGTLVTVSS VL: DVQLTQSPSFLSASVGDRVTITCQASQNIDGNTYMNWYQQKPGKAPKVLIYSIFNLESGVPSRFSGSGSGTEFTLTISSLQPEDFATYYCQQSNDYPYTFGQGTKLEIK	17
hu88 (antibody, V domains shown, 1F5 HC-5/2B8 LC2-2) VH: QVQLVQSGAEVKKPGASVKVSCKASGYTFIDFNMHWVRQAPGQRLEWMGYIYPYNADVVYNQDFTNRVTLTVDTSSSTAYMELSSLRSEDTAVYYCAREGLGGYWGQGTLVTVSS VL: DVQLTQSPSFLSASVGDRVTITCQASQNIDGNTYMNWYQQKPGKAPKVLIYSIFNLESGVPSRFSGSGSGTEFTLTISSLQPEDFATYYCQQSNDYPYTFGQGTKLEIK	93
hu208 (antibody, V domains shown, 3H10 HC-1/3H10 LC2-2) VH: QVQLVQSGAEVKKPGASVKVSCKASGYTFTDYNMHWVRQAPGQGLEWMGYIYPYNGHTVYNQKFRNRVTMTVDTSSSTAYMELRSLRSDDTAVYYCAKEGLGGYWGQGTLVTVSS VL: DIQLTQSPSSLSASVGDRVTITCKASQNIDYGGYSYMNWYQQKPGKAPKVLIYSVFNLESGVPSRFSGSGSGTDFTLTISSLQPEDFATYYCQQSNEAPYTFGQGTKLEIK	15
hu101 (antibody, V domains shown, 2A2 HC-1/2B8 LC2-2) VH: QVQLVQSGAEVKKPGASVKVSCKASGYTFTDYNMHWVRQAPGQRLEWMGYVYPYNGGSAYNQKFKSRVTLTVDTSSSTAYMELSSLRSEDTAVYYCAREGLGGYWGQGTLVTVSS VL: DVQLTQSPSFLSASVGDRVTITCQASQNIDGNTYMNWYQQKPGKAPKVLIYSIFNLESGVPSRFSGSGSGTEFTLTISSLQPEDFATYYCQQSNDYPYTFGQGTKLEIK	48
hu114 (antibody, V domains shown, 2B8 HC1-1/2B8 LC2-2) VH: QVQLVQSGAEVKKPGASVKVSCKASGYTFTDYNMHWVRQAPGQGLEWMGNIYPYNGGTVYNQKFNNRVTLTVDTSSSTAYMELSRLRSDDTAVYYCAREGLGGYWGQGTLVTVSS VL: DVQLTQSPSFLSASVGDRVTITCQASQNIDGNTYMNWYQQKPGKAPKVLIYSIFNLESGVPSRFSGSGSGTEFTLTISSLQPEDFATYYCQQSNDYPYTFGQGTKLEIK	41
hu179 (antibody, V domains shown, 3E5 HC-3/2B8 LC2-2) VH: QVQLVQSGAEVKKPGASVKVSCKASGYTFTDYNMHWVRQAPGQGLEWMGYISPYNGGTAYNQKFKFRVTLTVDTSSSTAYMELSRLRSDDTVVYYCAREGLGGYWGQGTLVTVSS VL: DVQLTQSPSFLSASVGDRVTITCQASQNIDGNTYMNWYQQKPGKAPKVLIYSIFNLESGVPSRFSGSGSGTEFTLTISSLQPEDFATYYCQQSNDYPYTFGQGTKLEIK	77
hu192 (antibody, V domains shown, 3E5 HC-4/2B8 LC2-2) VH: QVQLVQSGAEVKKPGASVKVSCKTSGYTFTDYNMHWVRQAPGQRLEWMGYISPYNAGTAYNQKFKFRVTLTVDTSSSTAYMELSSLRSEDTAVYYCAREGLGGYWGQGTLVTVSS VL: DVQLTQSPSFLSASVGDRVTITCQASQNIDGNTYMNWYQQKPGKAPKVLIYSIFNLESGVPSRFSGSGSGTEFTLTISSLQPEDFATYYCQQSNDYPYTFGQGTKLEIK	15
hu62 (antibody, V domains shown, 1F5 HC-3/2B8 LC2-2) VH: QVQLVQSGAEVKKPGASVKVSCKASGYTFTDFNMHWVRQAPGQGLEWMGYIYPYNGDVVYNQNFTNRVTLTVDTSSSTAYMELRSLRSDDTAVYYCAREGLGGYWGQGTLVTVSS VL: DVQLTQSPSFLSASVGDRVTITCQASQNIDGNTYMNWYQQKPGKAPKVLIYSIFNLESGVPSRFSGSGSGTEFTLTISSLQPEDFATYYCQQSNDYPYTFGQGTKLEIK	15
hu49 (antibody, V domains shown, 1F5 HC-2/2B8 LC2-2) VH: QVQLVQSGAEVKKPGASVKVSCKASGYTFTDFNMHWVRQAPGQRLEWMGYIYPYNGDVVYNQNFTNRVTLTVDTSSSTAYMELSSLRSEDTAVYYCAREGLGGYWGQGTLVTVSS VL: DVQLTQSPSFLSASVGDRVTITCQASQNIDGNTYMNWYQQKPGKAPKVLIYSIFNLESGVPSRFSGSGSGTEFTLTISSLQPEDFATYYCQQSNDYPYTFGQGTKLEIK	60
hu166 (antibody, V domains shown, 3E5 HC-2/2B8 LC2-2) VH: QVQLVQSGAEVKKPGASVKVSCKASGYTFTDYNMHWVRQAPGQRLEWMGYISPYNGGTAYNQKFKFRVTLTVDTSSSTAYMELSSLRSEDTAVYYCAREGLGGYWGQGTLVTVSS VL: DVQLTQSPSFLSASVGDRVTITCQASQNIDGNTYMNWYQQKPGKAPKVLIYSIFNLESGVPSRFSGSGSGTEFTLTISSLQPEDFATYYCQQSNDYPYTFGQGTKLEIK	19
hu221 (antibody, V domains shown, 3H10 HC-2/3H10 LC2-2) VH: QVQLVQSGAEVKKPGASVKVSCKASGYTFTDYNMHWVRQAPGQGLEWMGYIYPYNGHTVYNQKFRNRVTLTVDTSSSTAYMELRSLRSDDTAVYYCAREGLGGYWGQGTLVTVSS VL: DIQLTQSPSSLSASVGDRVTITCKASQNIDYGGYSYMNWYQQKPGKAPKVLIYSVFNLESGVPSRFSGSGSGTDFTLTISSLQPEDFATYYCQQSNEAPYTFGQGTKLEIK	24
hu140 (antibody, V domains shown, 2B8 HC1-3/2B8 LC2-2) VH: QVQLVQSGAEVKKPGASVKVSCKASGYTFTDYNMHWVRQAPGQGLEWMGNIYPYNAGTVYNQKFNNRVTLTVDTSSSTAYMELSRLRSDDTAVYYCAREGLGGYWGQGTLVTVSS VL: DVQLTQSPSFLSASVGDRVTITCQASQNIDGNTYMNWYQQKPGKAPKVLIYSIFNLESGVPSRFSGSGSGTEFTLTISSLQPEDFATYYCQQSNDYPYTFGQGTKLEIK	47
hu10 (antibody, V domains shown, 1B2 HC-1/2B8 LC2-2) VH: QVQLVQSGAEVKKPGASVKVSCKASGYTFTDYNMHWVRQAPGQGLEWMGYIFPYNGVAVYNRKFRSRVTLTIDTSSSTAYMELRSLRSDDTAVYYCAREGLGGYWGQGTLVTVSS VL: DVQLTQSPSFLSASVGDRVTITCQASQNIDGNTYMNWYQQKPGKAPKVLIYSIFNLESGVPSRFSGSGSGTEFTLTISSLQPEDFATYYCQQSNDYPYTFGQGTKLEIK	14
hu36 (antibody, V domains shown, 1F5 HC-1/2B8 LC2-2) VH: QVQLVQSGAEVKKPGASVKVSCKASGYTFIDFNMHWVRQAPGQRLEWMGYIYPYNGDVVYNQNFTNRVTLTVDTSSSTAYMELSSLRSEDTAVYYCAREGLGGYWGQGTLVTVSS VL: DVQLTQSPSFLSASVGDRVTITCQASQNIDGNTYMNWYQQKPGKAPKVLIYSIFNLESGVPSRFSGSGSGTEFTLTISSLQPEDFATYYCQQSNDYPYTFGQGTKLEIK	40
